Laboratory results taken from IntAct's records for PubMed 16469698.

B1: Transcription-repair-coupling factor (Escherichia coli (strain K12)), P30958 (parent)
chain: MPEQYRYTLPVKAGEQRLLGELTGAACATLVAEIAERHAGPVVLIAPDMQNALRLHDEISQFTDQMVMNLADWETLPYDSFSPHQDIISSRLSTLYQLPTMQRGVLIVPVNTLMQRVCPHSFLHGHALVMKKGQRLSRDALRTQLDSAGYRHVDQVMEHGEYATRGALLDLFPMGSELPYRLDFFDDEIDSLRVFDVDSQRTLEEVEAINLLPAHEFPTDKAAIELFRSQWRDTFEVKRDPEHIYQQVSKGTLPAGIEYWQPLFFSEPLPPLFSYFPANTLLVNTGDLETSAERFQADTLARFENRGVDPMRPLLPPQSLWLRVDELFSELKNWPRVQLKTEHLPTKAANANLGFQKLPDLAVQAQQKAPLDALRKFLETFDGPVVFSVESEGRREALGELLARIKIAPQRIMRLDEASDRGRYLMIGAAEHGFVDTVRNLALICESDLLGERVARRRQDSRRTINPDTLIRNLAELHIGQPVVHLEHGVGRYAGMTTLEAGGITGEYLMLTYANDAKLYVPVSSLHLISRYAGGAEENAPLHKLGGDAWSRARQKAAEKVRDVAAELLDIYAQRAAKEGFAFKHDREQYQLFCDSFPFETTPDQAQAINAVLSDMCQPLAMDRLVCGDVGFGKTEVAMRAAFLAVDNHKQVAVLVPTTLLAQQHYDNFRDRFANWPVRIEMISRFRSAKEQTQILAEVAEGKIDILIGTHKLLQSDVKFKDLGLLIVDEEHRFGVRHKERIKAMRANVDILTLTATPIPRTLNMAMSGMRDLSIIATPPARRLAVKTFVREYDSMVVREAILREILRGGQVYYLYNDVENIQKAAERLAELVPEARIAIGHGQMRERELERVMNDFHHQRFNVLVCTTIIETGIDIPTANTIIIERADHFGLAQLHQLRGRVGRSHHQAYAWLLTPHPKAMTTDAQKRLEAIASLEDLGAGFALATHDLEIRGAGELLGEEQSGSMETIGFSLYMELLENAVDALKAGREPSLEDLTSQQTEVELRMPSLLPDDFIPDVNTRLSFYKRIASAKTENELEEIKVELIDRFGLLPDPARTLLDIARLRQQAQKLGIRKLEGNEKGGVIEFAEKNHVNPAWLIGLLQKQPQHYRLDGPTRLKFIQDLSERKTRIEWVRQFMRELEENAIA

Variants of: B1
Conditions: with rpob_ecoli rpoB

Row | effect of a mutation on the interaction | Variant
1 | decreasing interaction | L499R
